Experimental data published in US20100075897A1, “METHOD FOR S[…] BIOACTIVE PEPTIDES AND APPLICATION THEREOF” (JINAN UNIVERSITY, priority 2008, published 2010).
Positions count from the first letter of the chain named. Where two headings read alike, the source gives them in different places. Ends that are not written are not given here.

Assays:
[1] = target: GLP-1 receptor; conditions: CHO/GLP-1R, competition with 125I-GLP-1; fusion polypeptides after treatment with thrombin and DPP IV; read-out: Receptor binding affinity IC50
Description: (§1) The actual experimental steps were extracted from method as described by Montrose-Rafizadeh with proper modification as following:
(§2) (2) After cultured, removing supernatant, washing cells with cold PBS for three times, and then mixing with 0.5 mL 0.5 mol/L NaOH and 0.1% (mg/mL) SDS for 10 minutes. Irradiation of the cell lysis was determined by Apec-Series […] (ICN Biomedicals, Inc., Costa Mesa, Calif.).

[2] = target: GLP-1 receptor; format: cell-based; conditions: CHO/GLP-1R, 30 minutes; GLP-1 released from ABP-LK-GLP; read-out: cAMP production EC50
Description: Samples were rotated and then centrifuged for 5 minutes (2000 g, 4° C.) to acquire precipitation. Supernatant was removed by vacuum and then the precipitation was dissolved into 300 μL of […] Tris buffer (pH7.5, containing […] EDTA), added with sodium bicarbonate (0.15 mg/mL) and zinc sulfate (0.15 mg/mL), followed by being placed on ice for 15 minutes. Centrifugation was performed at 2000 g at 4° C. for […] to remove precipitation and obtain a supernatant. The supernatant was analyzed with [^3H] cAMP competition assay kit (Amersham Biotech, QC).

[3] = target: T1, GLP-1 receptor; test: cell-based or functional assay
T1 chain: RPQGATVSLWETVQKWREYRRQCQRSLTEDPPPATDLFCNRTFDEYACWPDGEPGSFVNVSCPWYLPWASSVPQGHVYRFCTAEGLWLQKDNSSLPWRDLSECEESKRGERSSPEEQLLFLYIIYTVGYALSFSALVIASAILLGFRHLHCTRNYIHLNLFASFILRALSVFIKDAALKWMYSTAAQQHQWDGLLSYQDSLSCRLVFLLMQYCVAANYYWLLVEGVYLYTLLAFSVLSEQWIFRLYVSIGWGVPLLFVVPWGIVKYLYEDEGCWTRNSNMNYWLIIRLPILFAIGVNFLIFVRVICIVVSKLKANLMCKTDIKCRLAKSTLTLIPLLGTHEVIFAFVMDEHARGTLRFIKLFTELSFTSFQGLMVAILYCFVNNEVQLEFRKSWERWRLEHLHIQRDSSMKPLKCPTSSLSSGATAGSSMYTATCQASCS

[4] = target: T1, GLP-1 receptor; test: competition with 125I-GLP-1 on CHO/GLP-1R cells
[5] = target: T1, GLP-1 receptor; test: competition with 125I-GLP-1 on CHO/GLP-1R cells; polypeptide digested with thrombin and DPP IV first
Description: as §1, §2

[6] = target: T2, human serum albumin (human, UniProt P02768 25-609); test: phage ELISA on plate-coated HSA, sample row, dilution column 2 of 12
T2 construct: Bought protein; coated on plates (ELISA) or coupled to a CM5 chip (SPR); also called HSA; human albumin

[7] = target: T2, human serum albumin; test: phage ELISA on plate-coated HSA, Table 3 absorbance (sample minus blank), dilution column 1 of 12
[8] = target: T2, human serum albumin; test: phage ELISA on plate-coated HSA, Table 3 absorbance (sample minus blank), dilution column 3 of 12
[9] = target: T2, human serum albumin; test: phage ELISA on plate-coated HSA, Table 3 absorbance (sample minus blank), dilution column 2 of 12
[10] = target: T2, human serum albumin; test: phage ELISA on plate-coated HSA, sample row, dilution column 1 of 12
[11] = target: T2, human serum albumin; test: phage ELISA on plate-coated HSA, Table 3 absorbance (sample minus blank), dilution column 6 of 12
[12] = target: T2, human serum albumin; test: phage ELISA on plate-coated HSA, Table 3 absorbance (sample minus blank), dilution column 7 of 12
[13] = target: T2, human serum albumin; test: SPR (BIAcore 3000), HSA on CM5 chip, polypeptide injected, 1:1 model
Description: Signal of conjugated channel subtracted by that of unconjugated channel of injected solution was calculated as the amount of bound peptides during a defined period, as shown in FIG. 4. PBS buffer containing 0.05% Tween-20 was used for dilution of all samples. SPR curve was evaluated by BIAcore™ kinetics evaluation software (Version 4.1). […] Kd was calculated from binding rate (kₒₙ) and dissociating rate (koff), i.e. dissociation constant.

[14] = target: T2, human serum albumin; test: phage ELISA on plate-coated HSA, sample row, dilution column 3 of 12

T2 sequence (P02768 25-609 limits assumed): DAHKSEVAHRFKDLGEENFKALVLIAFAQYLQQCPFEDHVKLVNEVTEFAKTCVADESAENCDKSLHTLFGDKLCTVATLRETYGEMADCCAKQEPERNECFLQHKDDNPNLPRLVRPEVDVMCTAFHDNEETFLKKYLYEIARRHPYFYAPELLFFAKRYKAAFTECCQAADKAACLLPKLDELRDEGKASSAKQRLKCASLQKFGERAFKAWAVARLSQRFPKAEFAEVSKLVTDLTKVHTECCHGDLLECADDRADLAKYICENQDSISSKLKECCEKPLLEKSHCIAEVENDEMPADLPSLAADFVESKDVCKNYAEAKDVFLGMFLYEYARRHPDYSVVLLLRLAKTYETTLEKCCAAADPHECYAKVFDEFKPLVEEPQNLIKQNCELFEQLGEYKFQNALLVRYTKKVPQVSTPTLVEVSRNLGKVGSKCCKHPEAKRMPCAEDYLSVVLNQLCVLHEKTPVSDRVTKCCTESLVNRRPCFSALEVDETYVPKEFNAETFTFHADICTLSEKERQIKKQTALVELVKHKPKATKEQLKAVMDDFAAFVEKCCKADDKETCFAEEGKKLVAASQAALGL

Molecule “PLPHSHRAHSLPPFNPRGP HAEGTFTSDVSSYLEGQAAKEFIAWLVKGRG [DP6.2]” has an IC50 [1] of 2.1 ± 0.8 nM and an EC50 [2] of 23 ± 2.1 nM.

Molecule “PSSLLHWTHKIPALFNPRGS HAEGTFTSDVSSYLEGQAAKEFIAWLVKGRG [DP8.3]” has an IC50 [1] of 2.5 ± 0.6 nM and an EC50 [2] of 23 ± 2.2 nM.

For “LPHSHRAHSLPPFNPRPA HAEGTFTSDVSSYLEGQAAKEFIAWLVKGRG [PA6.2]”, the IC50 [1] was 2.2 ± 0.7 nM and the EC50 [2] was 23 ± 2.4 nM.

Work on “LPHSHRAHSLPPFNPRPP HAEGTFTSDVSSYLEGQAAKEFIAWLVKGRG [PP6.2]” yielded an IC50 [1] of 2.3 ± 0.8 nM and an EC50 [2] of 21 ± 2.1 nM.

In the case of “PNICLPRWGCLWDFNPRGA HAEGTFTSDVSSYLEGQAAKEFIAWLVKGRG [DP4.1]”, the IC50 [1] is reported as 2.5 ± 0.8 nM and the EC50 [2] is reported as 19 ± 2.1 nM.

Molecule “PDICLPRWGCLWEFNPRGA HAEGTFTSDVSSYLEGQAAKEFIAWLVKGRG [DP3.1]” has an IC50 [1] of 2.1 ± 0.5 nM and an EC50 [2] of 23 ± 2 nM.

B1: FN-GLP (peptide)
peptide: FNPRHAEGTFTSDVSSYLEGQAAKEFIAWLVKGRG
notes: GLP-1(7-37) with N-terminal FNPR
For B1, the “cAMP production EC50” value [3] was > 1000 nM and the IC50 [4] was 450 nM.

B2: LV-GLP (peptide)
peptide: B1 peptide with F1L, N2V
notes: GLP-1(7-37) with N-terminal LVPR
B2 was tested, and the “cAMP production EC50” value [3] was > 1000 nM and the IC50 [4] was 467 nM.

B3: DP4.1 fusion polypeptide (peptide)
peptide: PNICLPRWGCLWDFNPRGAHAEGTFTSDVSSYLEGQAAKEFIAWLVKGRG
notes: ABP-LK-GLP fusion polypeptide; also called ABP-LK-GLP
B3 was tested, and the “cAMP production EC50” value [3] was 19 nM and the IC50 [5] was 2.5 nM.

B4: Phage ID NO. 1 (M13 phage displaying the peptide of SEQ ID NO. 1, NVCLPKWGCLWE) (peptide)
peptide: NVCLPKWGCLWE
modifications: not fully specified (bridges); cysteine pairing not given here; also: displayed on M13 phage coat protein
notes: Tested as whole phage particles, not as free peptide; not shown: not described
For B4, the “absorbance at 405 nm” value [6] was 0.09 and the “absorbance at 405 nm” value [7] was 0.04.

B5: Phage ID NO. 2 (M13 phage displaying the peptide of SEQ ID NO. 2, DVCLPQWGCLWG) (peptide)
peptide: DVCLPQWGCLWG
modifications: not fully specified (bridges); cysteine pairing not given here; also: displayed on M13 phage coat protein
notes: as for B4
With B5 the “absorbance at 405 nm” value [8] was 0.04.

B6: Phage ID NO. 4 (M13 phage displaying the peptide of SEQ ID NO. 4, NICLPRWGCLWD) (peptide)
peptide: NICLPRWGCLWD
modifications: not fully specified (bridges); cysteine pairing not given here; also: displayed on M13 phage coat protein
notes: as for B4
In the case of B6, the “absorbance at 405 nm” value [9] is reported as 0.04 and the “absorbance at 405 nm” value [10] is reported as 0.08.

B7: Phage ID NO. 5 (M13 phage displaying the peptide of SEQ ID NO. 5, LPWHLKYREPPR) (peptide)
peptide: LPWHLKYREPPR
modifications: also: displayed on M13 phage coat protein
notes: as for B4
With B7 the “absorbance at 405 nm” value [11] was 0.08.

B8: Phage ID NO. 6 (M13 phage displaying the peptide of SEQ ID NO. 6, LPHSHRAHSLPP) (peptide)
peptide: LPHSHRAHSLPP
modifications: also: displayed on M13 phage coat protein
notes: as for B4
In the case of B8, the “absorbance at 405 nm” value [6] is reported as 0.09 and the “absorbance at 405 nm” value [8] is reported as 0.05.

B9: Phage ID NO. 7 (M13 phage displaying the peptide of SEQ ID NO. 7, SLFRHQHATPQI) (peptide)
peptide: SLFRHQHATPQI
modifications: also: displayed on M13 phage coat protein
notes: as for B4
With B9 the “absorbance at 405 nm” value [10] was 0.08, the “absorbance at 405 nm” value [6] was 0.08 and the “absorbance at 405 nm” value [12] was 0.1.

B10: DP5.1 fusion polypeptide (peptide)
peptide: LPWHLKYREPPR
modifications: not fully specified; also: fusion polypeptide ABP-LK-GLP, linker and GLP-1 part not given here
notes: also called ABP-LK-GLP; not shown: rest of DP5.1 (any N-terminal Pro, linker, GLP-1 part) is printed nowhere
Molecule B10 has a Kd [13] of 4600 nM.

B11: Phage ID NO. 3 (M13 phage displaying the peptide of SEQ ID NO. 3, DICLPRWGCLWE) (peptide)
peptide: DICLPRWGCLWE
modifications: not fully specified (bridges); cysteine pairing not given here; also: displayed on M13 phage coat protein
notes: as for B4
B11 was tested, and the “absorbance at 405 nm” value [14] was 0.1.
